Where a chain is given by its changes, count along the chain named.
T1: D409F
T1 construct: also called human CI-M6PR Dom1-3His6 D409F
T1 chain: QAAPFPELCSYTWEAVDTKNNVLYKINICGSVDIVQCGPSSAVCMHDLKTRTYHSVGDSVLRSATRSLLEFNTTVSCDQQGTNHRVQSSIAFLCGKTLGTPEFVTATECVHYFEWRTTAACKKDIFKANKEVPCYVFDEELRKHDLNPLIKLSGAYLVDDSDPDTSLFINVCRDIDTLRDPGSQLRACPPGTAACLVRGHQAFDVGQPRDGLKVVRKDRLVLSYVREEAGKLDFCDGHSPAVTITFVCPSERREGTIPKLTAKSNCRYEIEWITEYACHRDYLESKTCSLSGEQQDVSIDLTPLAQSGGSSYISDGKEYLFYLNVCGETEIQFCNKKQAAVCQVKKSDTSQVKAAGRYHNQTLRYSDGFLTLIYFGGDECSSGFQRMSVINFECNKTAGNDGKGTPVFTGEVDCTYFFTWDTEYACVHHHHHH

T2: K89D
T2 construct: also called human CI-M6PR Dom1-3His6 K89D
T2 chain: T1 chain with K49D, F369D

B1: anti-CI-M6PR VHH1 (VHH)
VHH: QVQLQESGGGLVQPGGSLRLSCVASGFTFDRYWMNWLRQIPGKEIEWVSTINTGGTGTYYDDSVKGRFSISRDDAKNTLYLTMNSLKTEDTAVYYCARGATYYRGNSAIRGQGTQVTVSS
notes: His6-tagged; made in Pichia pastoris, later also in E. coli WK6
B2: anti-CI-M6PR VHH8 (VHH)
VHH: QVQLQESGGGLVQAGGSLRLSCEASGRTFNTYNWGWFRQAPGKEREFVAAIRWSSSKTSYADSVKGRFTISRDNAKNTIYLQMNSLKPEDTAVYYCAASIVDFTTNPSHFGSWGQGTQVTVSS
notes: His6-tagged (Pichia pastoris)
B3: anti-CI-M6PR VHH7 (VHH)
VHH: QVQLQESGGGLVQPGGSLRLSCAASGIIFSDNRMDWYRQAPGKQREWVATLASYGWKTYADSVKGRFTISRDNTKNTVYLRMNSLKPEDTAVYYCKASSPVLNDIWGQGTQVTVSS
notes: His6-tagged (Pichia pastoris)
B4: anti-CI-M6PR VHH 1H11 (VHH)
VHH: QVQLQESGGGLVQPGGSLRLSCAASGIIFSDNRMDWYRQAPGKQREWVATLASYGWKTYADSVKDRFTISRDNAKNTVNLYMNSLQPEDTAVYYCNSGQYWGQGTQVTVSS
notes: made in E. coli WK6, His-tag purified
B5: anti-CI-M6PR VHH5 (VHH)
VHH: QVQLQESGGGLVQAGGSLKLSCAAAGRTFSRLAMGWFRQAPGKEREFVAAISENGDSIHYSDSVKGRFAVSRDNAKNTVYLQMNSLKPEDTAIYYCAADRAAYYCSGSGCYPSRAPAAASYDYWGQGTQVTVSS
notes: as for B1

target: T3, recombinant human domain 1-3His6 of the cation-independent mannose-6-phosphate receptor (human, UniProt P11717 41-467); test: BLI exp 2, dissoc pH 5.5
T3 construct: Biotinylated (NHS-PEG4-biotin) for BLI; Glycosylated; also called hDom1-3His6; hCI-M6PRD1-D3
Description: For each of the 11 anti-CI-M6PR VHHs, a biolayer interferometry (BLI) experiment was performed in which the hDom₁₋₃His₆ was biotinylated and coupled to streptavidin biosensor tips. Afterwards, the tips were incubated with serially diluted VHHs during the association phase and dissociation was performed at pH 7.4. Similarly, dissociation was performed at pH 7.0, pH 6.0 and pH 5.0 as well after regeneration of the biosensor tips. […] The anti-CI-M6PR antibody (clone 2G11) and GBP were used as positive and negative controls, respectively.
Analysis of the binding kinetics was performed using an Octet Red96 (FortéBio) device with Streptavidin SA Biosensor tips (VWR, 733-2145). To this end, 1 mL of hCI-M6PR_D1-D3 (0.5 mg/mL in 50 mM MES, 150 mM NaCl, pH 6.5) was incubated at room temperature for 30 minutes with a two-fold molar excesses of EZ-Link™ NHS-PEG₄-Biotin (Thermo Fischer, A39259) and NaHCO₃ (100 mM, pH 8.3). Biotinylated hCIMPR_D1-D3 was purified using a Zeba spin desalting column (Thermo Fischer, 89890) and protein concentration was calculated by measuring the absorbance at 280 nm (extinction coefficient 50320 M¹ cm⁻¹). Two-fold biotin-labelled antigen was loaded on the tips (2.5 μg/mL) and subsequently dipped into a particular anti-CI-M6PR VHH-containing solution (ranging from 0-100 nM). Serial VHH dilutions were made in kinetics buffer (0.2 M Na₂HPO₄, 0.1 M Na⁺ citrate, 0.01% BSA, 0.002% Tween20, pH 7.4). After association (100 sec), dissociation was conducted (500 sec) for each anti-CI-M6PR VHH in the kinetics buffer, followed by biosensor regeneration in glycine (10 mM, pH 3) and neutralisation. The same cycle was repeated with dissociation performed in kinetics buffer of pH 7.0, 6.5, 6.0, 5.5, and 5.0.
A reference well and reference sensors were subtracted from ligand sensors afterwards and Savitsky-Golay filtering was applied on the data. Fitting of the data was performed using a 1:1 model, grouped per dissociation pH.

Row | koff | kon | Binder
1 | 0.04 s⁻¹ | 47000 M⁻¹ s⁻¹ | B1
2 | 0.0025 s⁻¹ | 1.9e+08 M⁻¹ s⁻¹ | B2
3 | 0.027 s⁻¹ | 35000 M⁻¹ s⁻¹ | B3

Target: T1, D409F
Test: ELISA on coated antigen (100 ng), anti-VHH-HRP, A450
Description: (§1) To determine the effect of site-directed mutations, an ELISA was performed. To this end, 100 ng of each successfully purified mutant was coated per well on Nunc Maxisorp plates in 50 mM MES, 150 mM NaCl, pH 6.5 buffer overnight at 4° C. […] Coating-only controls were included for background correction. […] Reactions were stopped after five minutes using a 2N H₂SO₄ solution and plates were read at 450 nm, with a 655 nm background correction. Data were analyzed using the GraphPad Prism 9 software.

Row | EC50 (read off the curve) | Binder
4 | ~0.4 nM | B4
5 | ~5 nM | B2
6 | ~4 nM | B5

target: T3, recombinant human domain 1-3His6 of the …; test: as above
Description: as §1

Row | EC50 (read off the curve) | Binder
7 | ~0.4 nM | B4
8 | ~10 nM | B1
9 | ~3 nM | B2
10 | ~2 nM | B5
11 | ~0.3 nM | B3

target: T3, recombinant human domain 1-3His6 of the …; test: BLI exp 2, dissoc pH 6.5

Row | koff | kon | Binder
12 | 0.011 s⁻¹ | 1.1e+06 M⁻¹ s⁻¹ | B1
13 | 0.0007 s⁻¹ | 1.2e+06 M⁻¹ s⁻¹ | B2
14 | 0.02 s⁻¹ | 430000 M⁻¹ s⁻¹ | B3

target: human cation-independent mannose-6-phosphate receptor, native, on cells (human, UniProt P11717 41-2491); test: cell-based or functional assay

Row | internalisation rate (live-cell imaging of AF488-VHH on MCF7 cells) | Binder
15 | 1.38e+06 summed AF-voxels/minute | B1
16 | 673000 summed AF-voxels/minute | B2
17 | 687000 summed AF-voxels/minute | B5
18 | 1.26e+06 summed AF-voxels/minute | B3

Target: T2, K89D
Test: ELISA on coated antigen (100 ng), anti-VHH-HRP, A450
Description: as §1

Row | EC50 (read off the curve) | Binder
19 | ~0.7 nM | B4
20 | ~3 nM | B2
21 | ~2 nM | B5

target: T3, recombinant human domain 1-3His6 of the …; test: as above; remark: another data set of the same source
Description: as §1

Row | EC50 (read off the curve) | Binder
22 | ~0.4 nM | B4
23 | ~10 nM | B1
24 | ~3 nM | B2
25 | ~2 nM | B5
26 | ~0.3 nM | B3

target: T3, recombinant human domain 1-3His6 of the …; test: ELISA on coated human CI-M6PRD1-D3, non-linear fit of the curves of FIG 36A
Description: FIGS. 36A-C. […] (FIG. 36A) ELISA assay in which each construct was serially diluted and incubated on human CI-M6PR_D1-D3 and the detected absorbance (Abs) at 450 nm was set out in function of concentration. […] Graphs created in Graphpad Prism 9.0.0.

Row | EC50 | Binder
27 | 19 nM | B1
28 | 0.16 nM | B2
29 | 65 nM | B5
30 | 0.45 nM | B3

Source: patent US20250263490A1 (VIB VZW, published 2025)
